Results taken from article PMC9855186, “Photoautotrophic Growth Rate Enhancement of Synechocystis sp. PCC6803 by Heterologous Production of 2-Oxoglutarate:Ferredoxin Oxidoreductase from Chlorobaculum tepidum” (Biology, 2022).

B1: Icd (isocitrate dehydrogenase) (Synechocystis sp. PCC 6803 substr. Kazusa) (protein)
chain: MYEKLQPPSVGSKITFVAGKPVVPNDPIIPYIRGDGTGVDIWPATELVINAAIAKAYGGREEINWFKVYAGDEACELYGTYQIFPEDTLTAIKEYGVAIKGPLTTPVGGGIRSLNVALRQIFDLYTCVRPCRYYPGTPSPHKTPEKLDIIVYRENTEDIYLGIEWAEGTEGAKKLIAYLNDELIPTTPALGKKQIRLDSGIGIKPISKTGSQRLVRRAILHAKRLPKAKQMVTLVHKGNIMKFTEGPFRDWGYELATTEFRAECVTERESWICGNKESNPDLTIEANAHMIDPGYDTLTEEKQAVIKQEVEQVLNSIWESHGNGQWKEKVMVNDRIADSIFQQIQTRPDEYSILATMNLNGDYLSDAAAAVVGGLGMGPGANIGDSAAIFEATHGTAPKHAGLDRINPGSVILSGVMMLEFMGWQEAADLIKKGIGAAIANREVTYDLARLMEPKVDKPLKCSEFAQAIVSHFDD
B2: CtOGOR (2-oxoglutarate:ferredoxin oxidoreductase) (Chlorobaculum tepidum TLS) (protein)
chain 1: MSDTVILNNNDMVISKTNVSVLFAGDSGDGMQLTGTQFANTVAVYGSDLNTFPNFPSEIRPPAGTVAGVSGFQLQFGTTGVYTPGAKFDVMIAMNAAALKANLKNLHHGGIIIADTDGFDAKNLNLAGYGETNNPLEDGTLTDYTVFKIPVISLTRQALADTGLSTKIIDRCKNMFVLGVLYWLYSLPLETTIEALQSKFKNKQDIAEANIKAVKAGYNFGDETEMFSQHGRFCVPPAQKKKGVYRRVTGNEASAIGLAAAAQKAGLELFLGSYPITPASEILQTLAGLKKWGVKTFQAEDEIAGILTSIGAAYGGALAATNTSGPGLALKTEGMGLAVILELPLVIINVMRGGPSTGLPTKPEQSDLLMAMYGRHGEAPMPVIAAMSPVDCFYAAYEAAKIAVEYMTPVLCLTDGYLALSSEPMLVPSPDELASITPMFSPERKADDPPYLPYKRDERCVRPWGIPGTPGLEHRIGGLEKQNETGHVSHDPENHALMTRLRAEKVAKVADIIPDLTIDNGPEKGDLLVLGWGSTYGAIKKAVEQAREGGLDVAHAHLRYINPFPKNLGAMLGNFKKVLIPENNCGQLLSLIRDKFLIEPVGFSKVQGLPFNEMEIEEKITDILKEL
chain 2: MTDTHTCLTAKDFTSNQEPKWCPGCGDFMVLQQLKNAMAELCLKTEEVVVVSGIGCSSRLPYYINTYGVHGIHGRAMAMASGLKVARPDLSVWVGTGDGDALSIGGNHYIHTVRRNLDINVVLFNNEIYGLTKGQYSPTSKVGLRTVTSPTGVVDYPINTIALTLGAGGTFVARVMDRDGKLMKEIFKRAHNHKGTSIVEIYQNCPIFNDGAFRAFSDKERKDDTTLYLEQGQPLVFGANGSKGIYLDGFKPTVIDLEKSGVSKDDLWIHDENDLIKANILSRFFDDPNSTEEFLPRPFGIFYVEDRFTYEQALSAQIDKAQEKGEGTLEELLAGNSTWTIN
notes: heterotetramer (alpha-beta)2, 220 kDa; N-terminal His6-KorA and C-terminal strep-tagged KorB, tags kept; codon-optimised genes; E. coli BL21(DE3); Fe-S clusters and TPP reconstituted

Tests used:
[1] = substrate: O=C(O)C[C@H](C(=O)O)[C@@H](O)C(=O)O; test: NADP+ reduction at A340, Michaelis-Menten fit; type: biochemical, Synechocystis sp. PCC 6803; settings: decarboxylation, 0.15 mM NADP+, 10 mM HEPES pH 8.0, 40 mM MgCl2
[2] = substrate: O=C(O)CCC(=O)C(=O)O; test: NADPH decrease at A340, Michaelis-Menten fit; type: biochemical, Synechocystis sp. PCC 6803; settings: carboxylation, 50 mM sodium bicarbonate fixed, 0.15 mM NADPH, 10 mM HEPES pH 8.0, 40 mM MgCl2
[3] = substrate: CC(C)(COP(=O)(O)OP(=O)(O)OC[C@H]1O[C@@H](n2cnc3c(N)ncnc32)[C@H](O)[C@@H]1OP(=O)(O)O)[C@@H](O)C(=O)NCCC(=O)NCCSC(=O)CCC(=O)O; test: coupled Fd/FNR assay, NADPH decrease at A340, Michaelis-Menten fit; type: biochemical, Chlorobaculum tepidum; settings: carboxylation, 50 mM sodium bicarbonate fixed, 0.15 mM NADPH, 0.1 μM FNR, 1 μM Synechocystis Fd (slr1382), 1 mM MgCl2, 1 mM DTT, 1 mM TPP, pH 7.5, 30 °C, anaerobic, kcat per αβ-protomer
Text: coupled Fd/FNR assay, NADPH decrease at A340, Michaelis-Menten fit on CtOGOR (2-oxoglutarate:ferredoxin oxidoreductase)

[4] = substrate: CC(C)(COP(=O)(O)OP(=O)(O)OC[C@H]1O[C@@H](n2cnc3c(N)ncnc32)[C@H](O)[C@@H]1OP(=O)(O)O)[C@@H](O)C(=O)NCCC(=O)NCCS; test: coupled Fd/FNR assay, NADP+ reduction at A340, Michaelis-Menten fit; type: biochemical, Chlorobaculum tepidum; settings: decarboxylation, 5 mM 2-oxoglutarate fixed, 0.15 mM NADP+, 0.1 μM FNR, 1 μM Synechocystis Fd (slr1382), 1 mM MgCl2, 1 mM DTT, 1 mM TPP, pH 7.5, 30 °C, anaerobic, kcat per αβ-protomer
Text: (§1) coupled Fd/FNR assay, NADP+ reduction at A340, Michaelis-Menten fit on CtOGOR (2-oxoglutarate:ferredoxin oxidoreductase)

[5] = substrate: O=C(O)CCC(=O)C(=O)O; test: as above; type: biochemical, Chlorobaculum tepidum; settings: decarboxylation, 0.5 mM CoA fixed, 0.15 mM NADP+, 0.1 μM FNR, 1 μM Synechocystis Fd (slr1382), 1 mM MgCl2, 1 mM DTT, 1 mM TPP, pH 7.5, 30 °C, anaerobic, kcat per αβ-protomer
Text: as §1

Row | Protein | Km [1] [µM] | Km [2] [µM] | Km [3] [µM] | kcat [3] [s⁻¹] | kcat/Km [3] [M⁻¹ s⁻¹] | Km [4] [µM] | kcat [4] [s⁻¹] | kcat/Km [4] [M⁻¹ s⁻¹] | Km [5] [µM] | kcat [5] [s⁻¹] | kcat/Km [5] [M⁻¹ s⁻¹]
1 | B1 | 121 ± 13 | 1003 | – | – | – | – | – | – | – | – | –
2 | B2 | – | – | 24 ± 2 | 2.6 ± 0.1 | 110000 ± 3500 | 42 ± 15 | 8.1 ± 0.2 | 192000 ± 2400 | 1689 ± 92 | 8.4 ± 0.1 | 5000 ± 100
